{
  "source": "patent US20100035945A1",
  "about": "“SMALL MOLECULE INHIBITORS OF BACTERIAL DAM DNA METHYLTRANSFERASES” (priority 2004, published 2010)",
  "key": {"EPEC [1]": {"system": "EPEC", "type": "cell-based, enteropathogenic E. coli (EPEC)", "details": "20 μM compound, 3T3 cells infected with EPEC for 6 hrs, FITC-phalloidin/DAPI", "source_text": "Cell and animal models for pathogenic E. coli infection: Enteropathogenic E. coli (EPEC), which is closely related to enterohemorrhagic E. coli O157:H7 (EHEC), and the closely related mouse pathogen Citrobacter rodentium all cause attaching and effacing (A/E) lesions, characterized by flattening of intestinal microvilli, adherence of the bacteria to epithelial cells, and reorganization of the host actin cytoskeleton, which result in the formation of an actin-filled membrane protrusion or “pedestal” beneath each bacterium (Goosney et al., 2000; Knutton et al., 1989). Pedestal formation is readily detected on cultured fibroblasts (see FIG. 30) exposed to EPEC, and then stained with antibodies that recognized outer membrane proteins in the bacterium (green in FIG. 30) or DAPI, which recognizes bacterial and cellular DNA (blue in FIG. 30), together with phalloidin to recognize actin (red in […]). Pedestals are seen as intense actin staining directly opposed to the bacterium.\n(§1) To determine whether formation of actin pedestals by EPEC could be used to screen for drugs which inhibit virulence, we tested each of the 82 compounds. 3T3 cells were plated in 96 well optical dishes. In this “proof of principle” experiment, each of the 82 compounds was added to a well at 20 μM, and cells were infected with EPEC for 6 hrs. The optical density (OD600) of the supernatant was assessed to estimate effects on bacterial growth, and the cells were fixed and stained with DAPI to recognize bacteria (and cell nuclei), and FITC-phalloidin to recognize filamentous actin. Inhibition of actin pedestals is readily identifiable as the loss of intense actin staining (Kalman et al., 1999; Swimm et al., 2004a). The plate was then scanned visually on an inverted Zeiss 200M fluorescence microscope with a 20× objective. All the wells on the dish were examined with 5 minutes (a high throughput format). At low power, actin pedestals are seen as intense fluorescence apposed to groups of bacteria (see FIG. 31B, arrow)."}, "3T3 cells": {"system": "3T3 cells", "details": "20 μM compound", "procedure": "as §1"}, "EPEC [2]": {"system": "EPEC", "assay": "bacterial growth by OD600 of supernatant / growth curves", "type": "cell-based, enteropathogenic E. coli (EPEC)", "details": "20 μM compound, listed as G6", "procedure": "as §1"}, "Dam": {"target": "Dam (Escherichia coli, UniProt P0AEE8)", "details": "compound concentration 200 μM; preliminary results, microplate assay"}, "[3]": {"target": "EcoDam K9A K9A (Escherichia coli) (UniProt P0AEE8)", "assay": "SPR", "details": "data not shown"}, "[4]": {"target": "EcoDam R124A R124A (Escherichia coli) (UniProt P0AEE8)", "assay": "SPR"}, "[5]": {"target": "T1, EcoDam DNA adenine methyltransferase (Escherichia coli, UniProt P0AEE8 SEQ:1-274)", "details": "2-aminopurine replacing orphan Thy; AdoHcy, Thy flipping"}, "[6]": {"target": "T2, T4Dam DNA adenine methyltransferase (Enterobacteria phage T4, UniProt P04392 SEQ:1-259)", "assay": "structure; AdoHcy; PDB 1YF3; nonspecific and 1/4-site", "details": "one-base 5' overhangs"}, "[7]": {"target": "T2, T4Dam DNA adenine methyltransferase", "assay": "structure; AdoHcy; nonspecific mode, not at GATC; 3.1 A"}, "[8]": {"target": "T2, T4Dam DNA adenine methyltransferase", "assay": "structure; sinefungin; PDB 1YFL; full site with flipped Ade"}, "[9]": {"target": "T1, EcoDam DNA adenine methyltransferase", "assay": "structure; AdoHcy cognate complex 1.89 A; also sinefungin non-canonical joint complex 1.99 A", "details": "tags: His tag", "procedure": "His Tag-EcoDam is expressed in HMS174(DE3) cells and purified using Ni²⁺-affinity, UnoS, and S75 Sepharose sizing columns. A 0.5-liter induced culture yields approximately 7 mg purified His Tag-EcoDam. In the last purification step and during concentration, cofactor analog AdoHcy or sinefungin is added is added to the protein at approximately 2:1 molar ratio. Concentrated binary complexes are mixed with oligonucleotide duplex (synthesized by New England Biolabs, Inc) at a protein to DNA ratio of about 2:1 and allowed to stand on ice for at least two hours before crystallization. Final protein concentration for crystallization is about 15 mg/mL. In hanging drop crystallization trials with AdoHcy, the ternary complex crystals appeared under low salt conditions of 100 mM KCl, 10 mM MgSO₄, 5-15% PEG400, and 100 mM buffer (MES or HEPES) pH 6.6-7.4 (the cognate crystal form in Table 4).\nStructural determination of the cognate ternary complex proceeded by molecular replacement with the program REPLACE (Tong and Rossmann, 1997) using protein coordinates of a DpnM monomer structure (PDB 2DPM) (Tran et al., 1998). […] Structure of the non-cognate ternary complex was determined using a protein monomer from the refined cognate complex structure as a search model."}},
  "note": "“Also recorded” adds a separate entry of the source. Where two headings read alike, the source gives them in different places.",
  "data": [
    {"molecule": "O=C1Oc2ccccc2C(=O)/C1=C/Nc1nc(-c2ccc(O)c(O)c2)cs1", "note": "[Compound 78]", "values": [
      {"measurement": "actin pedestal formation", "setting": "EPEC [1]", "result": "inhibit actin pedestal formation"},
      {"measurement": "actin pedestal formation", "setting": "EPEC [1]; listed as G6", "result": "appeared to inhibit actin pedestals; also recorded: No actin pedestals are observed"},
      {"measurement": "actin pedestal formation", "setting": "EPEC [1]; listed as NCI 659390", "result": "inhibit actin pedestal formation"},
      {"measurement": "gross cytopathological effects on 3T3 cells", "setting": "3T3 cells", "result": "no gross cytopathological effects"},
      {"measurement": "effect on bacterial growth (OD600)", "setting": "EPEC [2]", "result": "did not affect bacterial growth; also recorded: no effect on bacterial growth"},
      {"measurement": "Factor of inhibition", "setting": "Dam", "result": 5}
    ]},
    {"molecule": "SPR GATC oligonucleotide duplex", "values": [
      {"measurement": "binding signal (% of wild type binding)", "setting": "[3]", "result": 70},
      {"measurement": "binding signal (fold reduction vs wild type)", "setting": "[4]", "result": 10}
    ]},
    {"molecule": "GATC with 2AP at orphan Thy", "values": [
      {"measurement": "binding signal (fold fluorescence increase)", "setting": "[5]", "result": 6}
    ]},
    {"molecule": "13-mer duplex II (dsDNA) DNA 1: TGTCAGATCATGG DNA 2: ACCATGATCTGAC", "values": [
      {"measurement": "binding result", "setting": "[6]", "result": "binds"}
    ]},
    {"molecule": "12-mer duplex I (dsDNA) DNA 1: ACAGGATCCTGT DNA 2: ACAGGATCCTGT", "values": [
      {"measurement": "binding result", "setting": "[7]", "result": "binds"}
    ]},
    {"molecule": "16-mer duplex (dsDNA) DNA 1: TCACAGGATCCTGTGA DNA 2: TCACAGGATCCTGTGA", "values": [
      {"measurement": "binding result", "setting": "[8]", "result": "binds"}
    ]},
    {"molecule": "EcoDam 12-mer (dsDNA) DNA 1: TCTAGATCTAGA DNA 2: TCTAGATCTAGA", "values": [
      {"measurement": "binding result", "setting": "[9]", "result": "binds"}
    ]}
  ]
}
